Results from the DeepSol protein solubility set.

Experiment: soluble on expression in E. coli; label from the status in PepcDB or PDB records

Which “soluble on expression in E. coli” value does the source give for “MSLSNDRYSMSFTTGSLFHRESVKLAALYLDLGDWNSVRDKVIAENLLQTRTLNTLKRVCREIISRLRTMNPGELDFLVEGSHQEQAYLLWLAVCRRYRFIADFAVEVLRERYITLKADLTHEDFDSFFNRKSEWHLELDEITPATRSKLRQVLFKILREADLLAANNMINAAMLSPRLSDVIHRGSRRDVSYFPLFESDLKGMAKEGHHHHHH” here?
The value was “soluble”.

For “MMNALELQALRRIFDMTIEECTIYITQDNNSATWQRWEAGDIPISPEIIARLKEMKARRQRRINAIVDKINNRIGNNTMRYFPDLSSFQSIYTEGDFIEWKIYQSVAAELFAHDLERLC”, which “soluble on expression in E. coli” value is on record?
Its value is “soluble”.

For “MNPLHLETLLAIIDEGSFEDAAFALGISPSAVSQRIKALERETGRVVVRRTSPVTATDAGEVLVQSARRMALLQAETNAQLRGRIERIPLSVAVNADSLATWFRRVMASVAEMDNATLHMRIEDESHSLSLLRRGDVLGAVTGEKTPVSGCDSIALGAFRYFAVASPKLLDRYTIDGAVDWERMPVLRFGPRDGLQDRDIKRRLGEVPAGRRVNEIPSSEAFMEAARVGLGWAMLPDIQALPLLDSGEVVMLDSEVHEVPLYWQRWRLESPALERLTQAVVDAALEGLHPLSA”, which “soluble on expression in E. coli” value is on record?
Its value is “not soluble”.

For “MGSDKIHHHHHHMIKLFIVACGYIIYKLGRYCKENEYYMASLLMLQYHKSLSAERQQILYTNFTYYKKLSEKKKLEFEKRVQHFLTNKSFIASDGFEITEQMKVMIAATAVQILFCRKAYYLSSFDFIELFEEVPVHVEVMRKKRIIQISWNEFKKGFDSLIDGYNPGLKIMAMALDLEHKFGEKSLFSQQTYKAFQKIYKQEAEKYILSGKSKYDHYNKVDRTEYFAVAVEYFFERPEHFNVNQPAMYLALSKLLRQDPLGMYTYKEKVFE”, which “soluble on expression in E. coli” value is on record?
Its value is “not soluble”.

With “MGSDKIHHHHHHMKKLFLVLAVLSLVLYGCLRTPPVVKDMVTTDGSLSDWGSKIKEDAADDSKWGADNELLKAGLLFDGANIYIAGEYVIGGDGNVNVFLVLIDLVGVTGAQTVSYTGLNDGNRNFTNPNGDIDLIVEVNQSNEYKVWRVSQDGSLTDITDQVTAQFGTGSTIAELKIPISEQVNQVKAVFAISGGTGGGNQWVGDFYPNQPDHDSAENGGIPQPAPVVNFVVCDKEGNVSEEINQTSEPEQPTESVIVVDGDLSDFGTPVATSTNPGGGNGANLYRLYVTYDATYLYIGFDTQNSGSWDVAYGIGIDTKPSGYTGDSDAWGRKISFGADYAVDYEIYFWWAGGSGLDSNNFCEWNGLDWNYRSIADAGGTFDYTGDTSSGLQTMEIAIPWSAIGGKQDVALIVWITGGSGSAVDSIPDDDSTIDNADEWNDSDTFTNLYLLQVN” as the sequence, how does the “soluble on expression in E. coli” value read?
The value was “not soluble”.

With “MGHHHHHHSHMGCDGGTIPKRHELVKGPKKVEKVDKDAELVAQWNYCTLSQEILRRPIVACELGRLYNKDAVIEFLLDKSAEKALGKAASHIKSIKNVTELKLSDNPAWEGDKGNTKGDKHDDLQRARFICPVVGLEMNGRHRFCFLRCCGCVFSERALKEIKAEVCHTCGAAFQEDDVIVLNGTKEDVDVLKTRMEERRLRANREKKTKKPKAAESVSKPDVSEEAPGPSKVKTGKPEEASLDSREKKTNLAPKSTAMNESSSGKAGKPPCGATKRSIADSEESEAYKSLFTTHSSAKRSKEESAHWVTHTSYCF” as the sequence, how does the “soluble on expression in E. coli” value read?
The value was “not soluble”.

Which “soluble on expression in E. coli” value does the source give for “MSLPTEMHHNLGAEKRSAVATTIDSFKERSQKVRALSDPNVRFVPFFGSSEWLRFDGAHPAVLAEKYNRSYRPYLLGQGGAASLNQYFGMQQMLPQLENKQVVYVISPQWFSKNGYDPAAFQQYFNGDQLTSFLKHQSGDQASQYAATRLLQQFPNVAMKDLVQKLASKEELSTADNEMIELLARFNERQASFFGQFSVRGYVNYDKHVAKYLKILPDQFSYQAIEDVVKADAEKNTSNNEMGMENYFYNEQIKKDLKKLKDSQKSFTYLKSPEYNDLQLVLTQFSKSKVNPIFIIPPVNKKWMDYAGLREDMYQQTVQKIRYQLESQGFTNIADFSKDGGEPFFMKDTIHLGWLGWLAFDKAVDPFLSNPTPAPTYHLNERFFSKDWATYDGDVKEFQEGHHHHHH” here?
Its value is “soluble”.

With “GSMSSFLGKWKLSESHNFDAVMSKLGVSWATRQIGNTVTPTVTFTMDGDKMTMLTESTFKNLSCTFKFGEEFDEKTSDGRNVKSVVEKNSESKLTQTQVDPKNTTVIVREVDGDTMKTTVTVGDVTAIRNYKRLS” as the sequence, how does the “soluble on expression in E. coli” value read?
The value was “soluble”.

With “MRQPEDGNIRLWRYMDFSKFVALISSKSLFLNRVDRFTDPYEGHFSSLNNRLRNSIYEAKYAGSEIDPHKVASAIFDFNSFSRQWTYVNCWHANKYESAAMWDLYAKTEEAIAIETDYNSLAAVLPSEAQLGFVEYIDFDTEWMPENNATYPYLHKRKSFEHEKEVRIIVQEIPRAKSGVGFDREAVNDKHGISLDIDLNQLIKSIHVSPTAPKWLVDLTDTVSKTFGIDAHVKQSDLYKAPIK” as the sequence, how does the “soluble on expression in E. coli” value read?
Its value is “soluble”.

For “MMKTLSPLKASLFAILASSTVLVTTVSAEPSQECDHPRSEFHKRGDRMGHDGMHKMFEGLELTDTQKADIKKLFAEQRAARSDDKPTKEERLARRAEMHALITAATFDETQAKALIGAQQEKRQAQAIERMKMQNQIYNLLTPEQQAKFKARFEAHTGKEPRSLEHHHHHH”, which “soluble on expression in E. coli” value is on record?
Its value is “not soluble”.

Which “soluble on expression in E. coli” value does the source give for “MKLLQRGVALALLTTFTLASETALAYEQDKTYKITVLHTNDHHGHFWRNEYGEYGLAAQKTLVDGIRKEVAAEGGSVLLLSGGDINTGVPESDLQDAEPDFRGMNLVGYDAMAIGNHEFDNPLTVLRQQEKWAKFPLLSANIYQKSTGERLFKPWALFKRQDLKIAVIGLTTDDTAKIGNPEYFTDIEFRKPADEAKLVIQELQQTEKPDIIIAATHMGHYDNGEHGSNAPGDVEMARALPAGSLAMIVGGHSQDPVCMAAENKKQVDYVPGTPCKPDQQNGIWIVQAHEWGKYVGRADFEFRNGEMKMVNYQLIPVNLKKKVTWEDGKSERVLYTPEIAENQQMISLLSPFQNKGKAQLEVKIGETNGRLEGDRDKVRFVQTNMGRLILAAQMDRTGADFAVMSGGGIRDSIEAGDISYKNVLKVQPFGNVVVYADMTGKEVIDYLTAVAQMKPDSGAYPQFANVSFVAKDGKLNDLKIKGEPVDPAKTYRMATLNFNATGGDGYPRLDNKPGYVNTGFIDAEVLKAYIQKSSPLDVSVYEPKGEVSWQ” here?
Its value is “soluble”.

With “MAHHHHHHMVWKGSRERGVQEYRKKSKGNKPTKGEKVSKKGVSSSRQPKQRELLSAKQQQQQNRKNEELRAALAGAFSTEVSSSNAGPAFDGYGKGSPTDRLQFGYAPAVAAEAVAYHSTISTDAWIEARRTRYRTAIVEQKKLRRPNCEPITSILKLQGHWRSTELFEREVHGSHAVAQDKVDDILDTFVSRQRVA” as the sequence, how does the “soluble on expression in E. coli” value read?
Its value is “not soluble”.

With “MGSDKIHHHHHHMIKRAVEIVRQRGVGVLIKKIPPYIYQQVWPYLPSAGYTYKNGIKSCERGRVLDQFLPKYITQYATHQPSYESQYIEAIRRHVTEGQDVVLVGGGEGISTVVAANQVQRTGEVTVFEGAAEEARKSQVVVEINEVSDRTTVHHTIVSEDVSLRSAASGAEVLPSAELPSCDVLAIDADGAEISILDGIVNHPAVLIVEHHAVADTSGLALEYQPDRVRDLITNLGYDIVDEMSDPAGAGGGRFEERIYVGKRLAVEPSDLM” as the sequence, how does the “soluble on expression in E. coli” value read?
Its value is “not soluble”.

For “MGSDKIHHHHHHMSKILNTQLIGIFNRLEKQSLEIQMAAQCLIQAIGGEGYVYVKGYDDLQFFESFILHSDERLKSSRKLDAIKDFKEIDSTDRVLLFAPFYNDQVALDIQKLIDLDIDVVLISNKPKTDDFPDHLVHFIDLSTPRPIVYTEDYDKIVQPHAIALNYVYYDIYTQMIEMTRDLEL”, which “soluble on expression in E. coli” value is on record?
The value was “not soluble”.

Which “soluble on expression in E. coli” value does the source give for “MGSDKIHHHHHHMEKLQESMYQLIVETSTNLPNDVRRAIAEAKAKENAGTRAALSLSTITENIKMADENISPICQDTGMPTFEIKVPVGVNQIEMKKAIYAAIEQATKDGKLRPNSVDSLTGKNSGNNLGEGTPVIHFEQWEEDYIDARLILKGGGCENKNIQYSLPAELEGLGRAGRDLDGIRKCIMHSVYQAQGQGCSAGFIGVGIGGDRTTSYSLAKEQLFRKVDDVNPNDDLRKLEEYVLENANKLGIGTMGFGGEATLLGCKVGAMNRLPASFFVSVAYNCWAFRRLGVELDAETGEIKKWLYKDGERVDLNEVASQVAATAETTEVREVVLEAPVTEEQIRELKVGDVVIINGMLHTGRDAIHHHLMDHDAPIDLDGQIIYHCGPVMLQDDAGEWHVKAAGPTTSIREEPYQGDIMKKFGIRAVIGKGGMGPKTLKALQEHGGVYLNAIGGAAQYYADCIKKVKGVDLMEFGIPEAMWHLEVEGFAAIVTMDSHGNSLHEDVDKSSLEKLEQFAEKVF” here?
Its value is “not soluble”.
